From patent US20230040568A1 (ALBERT EINSTEIN COLLEGE OF MEDICINE, published 2023)

How the values were obtained:
[1] = target: T1, KIR3DL1 expressed on 3T3 cells (UniProt P43629 22-444, limits assumed); assay: FACS, HHLA2-Ig staining of 3T3 cells expressing KIR3DL1 (FIG. 2A)
T1 construct: whole, on cells
Description: (§1) FIG. 2A depicts histograms of 3T3 cell lines expressing KIR3DL1, KIR3DL2, or KIR3DL3 stained with HHLA2-Ig fusion polypeptide (open histograms) or control Ig (shaded histograms). FIG. 2B depicts a plot showing results of an intercellular conjugate assay that indicate 3T3 cell line expressing HHLA2 bound to 3T3 cell line expressing KIR3DL3, but not the control 3T3 cell line. FIG. 2C depicts histograms of a 3T3 cell line expressing HHLA2 bound by the DO domain (red) and the whole extracellular portion (red) of KIR3DL3.
(§2) Subsequent studies reported that HHLA2 is over-expressed in various types of human cancers (Cheng 2018; Cheng 2017; Koirala 2016; Janakiram 2015). To test the binding of HHLA2 to KIR3DL1, KIR3DL2, and KIR3DL3, 3T3 cell lines stable expressing cell surface KIR3DL1, KIR3DL2, or KIR3DL3 were generated.

[2] = target: T2, KIR3DL2 expressed on 3T3 cells (UniProt P43630 22-455, limits assumed); assay: FACS, HHLA2-Ig staining of 3T3 cells expressing KIR3DL2 (FIG. 2A)
T2 construct: whole, on cells
T2 sequence (P43630 22-455 limits assumed): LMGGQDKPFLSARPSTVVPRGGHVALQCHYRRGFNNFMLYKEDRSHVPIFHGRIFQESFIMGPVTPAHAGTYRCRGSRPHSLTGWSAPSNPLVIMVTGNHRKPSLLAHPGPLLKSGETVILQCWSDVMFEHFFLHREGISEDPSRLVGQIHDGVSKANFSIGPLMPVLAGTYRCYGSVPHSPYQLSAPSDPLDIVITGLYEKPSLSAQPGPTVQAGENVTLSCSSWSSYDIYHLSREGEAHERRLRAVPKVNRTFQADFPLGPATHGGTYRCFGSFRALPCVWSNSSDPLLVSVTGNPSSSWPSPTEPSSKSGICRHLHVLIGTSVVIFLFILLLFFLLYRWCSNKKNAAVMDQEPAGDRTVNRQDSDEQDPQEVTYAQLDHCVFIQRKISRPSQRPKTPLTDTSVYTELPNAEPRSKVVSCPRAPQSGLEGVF
Description: as §1, §2

[3] = target: T3, KIR3DL3 expressed on cells (3T3 cell line expressing KIR3DL3); KIR3DL3+ NK92 cells; primary KIR3DL3+ NK cells … (human, UniProt Q8N743 26-410); assay: FACS, HHLA2-Ig staining of 3T3 cells expressing KIR3DL3 (FIG. 2A)
T3 construct: also called KIR3DL3-expressing 3T3 cells; KIR3DL3 WT
T3 sequence (Q8N743 26-410 H321N): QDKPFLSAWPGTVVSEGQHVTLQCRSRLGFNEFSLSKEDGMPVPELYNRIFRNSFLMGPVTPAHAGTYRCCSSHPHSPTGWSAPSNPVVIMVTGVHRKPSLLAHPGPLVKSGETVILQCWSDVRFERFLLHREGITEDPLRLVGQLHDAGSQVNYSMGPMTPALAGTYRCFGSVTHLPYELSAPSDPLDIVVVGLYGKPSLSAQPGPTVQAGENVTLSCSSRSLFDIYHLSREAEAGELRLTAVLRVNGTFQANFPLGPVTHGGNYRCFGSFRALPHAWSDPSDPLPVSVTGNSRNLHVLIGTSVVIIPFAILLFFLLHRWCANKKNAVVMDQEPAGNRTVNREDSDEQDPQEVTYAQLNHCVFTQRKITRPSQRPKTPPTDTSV
Description: as §1, §2

T1 sequence (P43629 22-444 limits assumed): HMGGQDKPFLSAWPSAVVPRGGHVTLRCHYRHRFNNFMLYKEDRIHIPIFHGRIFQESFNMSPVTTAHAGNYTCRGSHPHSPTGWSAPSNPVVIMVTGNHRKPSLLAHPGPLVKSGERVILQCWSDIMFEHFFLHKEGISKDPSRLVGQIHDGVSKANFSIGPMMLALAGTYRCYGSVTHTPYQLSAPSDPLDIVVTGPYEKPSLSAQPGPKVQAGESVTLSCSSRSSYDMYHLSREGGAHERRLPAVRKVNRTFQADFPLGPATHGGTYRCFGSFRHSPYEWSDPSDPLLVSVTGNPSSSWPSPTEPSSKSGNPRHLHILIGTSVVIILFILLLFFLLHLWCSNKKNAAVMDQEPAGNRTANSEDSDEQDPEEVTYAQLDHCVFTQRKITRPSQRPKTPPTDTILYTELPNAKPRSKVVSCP

B1: HHLA2-Ig fusion polypeptide (Fc fusion, UniProt Q9UM44 23-344, looked up)
chain: IFPLAFFIYVPMNEQIVIGRLDEDIILPSSFERGSEVVIHWKYQDSYKVHSYYKGSDHLESQDPRYANRTSLFYNEIQNGNASLFFRRVSLLDEGIYTCYVGTAIQVITNKVVLKVGVFLTPVMKYEKRNTNSFLICSVLSVYPRPIITWKMDNTPISENNMEETGSLDSFSINSPLNITGSNSSYECTIENSLLKQTWTGRWTMKDGLHKMQSEHVSLSCQPVNDYFSPNQDFKVTWSRMKSGTFSVLAYYLSSSQNTIINESRFSWNKELINQSDFSMNLMDLNLSDSGEYLCNISSDEYTLLTIHTVHVEPSQETASHN
notes: also called HHLA2 protein; not shown: Ig part
- binding result [1]: no binding
- binding result [2]: no binding
- binding result [3]: binds
